Earlier results, collected in patent US20220031761A1, “COMPOSITIONS FOR PROMOTING SKIN REGENERATION, SKIN REJUVENATION, AND WOUND HEALING AND METHODS FOR PREPARATION AND USE THEREOF” (priority 2018, published 2022).

Conditions: in vivo

## HGF: growth factor secreted by mesenchymal cells, eluted by placental and umbilical tissue
  half-life of HGF: approximately 3 hours
